Data taken from the nanobody polyreactivity screen of Harvey et al. (2022).

assay: yeast display, Sf9 membrane polyspecificity reagent, FACS + sequencing; frameworks hold sequencing errors
How it was run: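 A synthetic nanobody library was expressed on Saccharomyces cerevisiae BJ5465 by galactose induction for 36–48 hours. The library was stained for 1 hour at 4 °C with 10% biotinylated, detergent-solubilized Sf9 membrane reagent and enriched with streptavidin microbeads before FACS. Low and high (top ~1%) gates were set on anti-HA fluorescence for expression and streptavidin fluorescence for reagent binding, and each polyreactivity label reflects the gate of origin.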

| Sequence | polyreactivity (PSR sort gate) |
| --- | --- |
| QVQLEESGGGLVQAGGSLRLSCAASGITFEAYAMGWYRQAPGKERELVAAIRSSGTSTYYADSVMGRFTISRDNAKNTVYLQMNSLKPEDTAVYYCNRARSSSRYDYWGQGTQVTVSS | low polyreactivity |
| QVQLEESGGGLVQAGGSLRLSCAASGITFVTYAMGWYRQAPGKERELVAAISRSGGRTYYADSVKGRFTISRDNAKNTVYLQMNSLKPEDTAVYYCAAERKNKYDYWGQGTQVTVSS | high polyreactivity |
| QVQLEESGGGLVQAGGSLRLSCAASGITFYYNDMGWYRQAPGKERELVAAISSGGTTNYADSVKGRFTISRDNAKNTFYLAMNSLKPEDTAVYYCATGYAEPEWDPFVSDYDYWGQGTQVTVSS | low polyreactivity |
| QVQLEESGGGLVQAGGSLRLSCAASGITIRIYAKGCYRQAPGKERELVAGISSSGSTNYADSVKGRFTISRDNAKNTVYLQMNSLKPEDTAVYYCAADAFYIFDYWGQGTQVTVSS | high polyreactivity |
| QVQLEESGGGLVQAGGSLRLSCAASGLIFVDNAMGGSRQATGKERALVASIDSGGSTNYADSVKGRFTISRDNAKNTFYLQMNSLKPEDTAVYYCSADWIYAPWYYQESVEYYYWGQGTQVTVSS | low polyreactivity |
| QVQLEESGGGLVQAGGSLRLSCAASGLIFWAYAMGWYRQAPGKDTELVAAINWRGGSTYYADSVKGRFTISRDNAKNTVYLQMNSLKPEDTAVYFCAGDSSYDEYDYWGQGTQVTVSS | low polyreactivity |
| QVQLEESGGGLVQAGGSLRLSCAASGMILTYYAMAWNRQAPGKERELVAGISSGTNTNYADSVKWRFTISRDNAKNTVYLQMNSLKPEDTAVYYCANTRGYEFVAYGYWGQGTQVNVSS | low polyreactivity |
| QVQLEESGGGLVQAGGSLRLSCAASGNIFYYYAMGWYRQAPGKEREVVATITSGGSTNYADSVKGRFTISRDNAKNTVYLQMNSLKPEDTAVYYCAADRRRTYYWLSSYFEGYYWGQGTQVTVSS | low polyreactivity |
| QVQLEESGGGLVQAGGSLRLSCAASGNTFYLYAMGWYRQAPGKERELVASITGGTRTNYADSVKGRFTISRDNAKNTVYLQMNSLKPEDTAVYYCAKTYPRTVGKYLSRGGYYYWGQGTQVTVSS | high polyreactivity |
| QVQLEESGGGLVQAGGSLRLSCAASGPIFVGYAMGWSRQAPGKEREFLAAISRDGDNTFYADSVKGRFTISRDYAKNTVYLQMYSLKPEDTAVYYCAVDYWVWYGCAYAYDYYWGQGTQVSVSS | low polyreactivity |
| QVQLEESGGGLVQAGGSLRLSCAASGRIFDDNAMGWYRQAPGKERELVAAISSGDSTKYADSVKGRFTISRDNAKNTVYLQMNSLKPEDTAVYYCAAERNHGLVGSESVGRNDYWGQGTQVTVSS | low polyreactivity |
| QVQLEESGGGLVQAGGSLRLSCAASGRIFGYYAMGWYRKAPGKERELVAAIRRSGASTYYADSVKGRFTISRDNAENTVYLQMYSLKPVDTAVYYCSQAGYSPVYGYWGQGTQVTVSS | high polyreactivity |
| QVQLEESGGGLVQAGGSLRLSCAASGRIFGYYAMGWYRQAPGKERELVATITFGGGSTYYADSVKGRFTISRDNAKNTVYLQMNSLKPEDTAVYYCAADSGYLGIYGDEYSWGQGTQVTVSS | low polyreactivity |
| QVQLEESGGGLVQAGGSLRLSCAASGRIFIRNAMGWYRQAPGKERELVAAISYSGGSTYYADSVKGRFTISRDNAKNTVYLQMNSLKPEDTAVYYCAAGSIRGTSFYYWGQGTQVTVSS | high polyreactivity |
| QVQLEESGGGLVQAGGSLRLSCAASGRIFQYYVRGWYRQAPGKERELVAAITRRGTNTYYADSVKGRFTISRDNAKNTVYLQMHSLNPEETAVYYCAATYYWSGYPVKTTSDYWGQGTQITVSS | high polyreactivity |
| QVQLEESGGGLVQAGGSLRLSCAASGRIFYAYGIGWYRQAPVKERELVAAISSGDSTNYADSVKGRFTISRDNAKNTVYFQMNSLKPEDTAVYYCAKDGSPLQLTDPTHDYEYWGQGTQVTVSS | low polyreactivity |
| QVQLEESGGGLVQAGGSLRLSCAASGRIFYRNAMGWYRQAPGKERELVAAISSSAGSTYYADSVKGRFTISRDHAKNTVYLQMNSLKPEDTAVYYCAAGSGTFVTRYRYDYWGQGTQVTVSS | high polyreactivity |
| QVQLEESGGGLVQAGGSLRLSCAASGRIFYWYAMGWYRQAPGKERELVATISSAGTTYYADSVKGRFTISRDNAKNTVYLQMNSLKPEDTAVYYCAVPRVGLHGIGSDYWGQGTQVTVSS | high polyreactivity |
| QVQLEESGGGLVQAGGSLRLSCAASGRILRGYVMGWYRQAPGKERELVATITGRGGSTYYADSVKGRFTISRDNAKNTVYLQMNSLKPEDTAVYYCNKDGYPYFGRSEYWGQGTQVTVSS | low polyreactivity |
| QVQLEESGGGLVQAGGSLRLSCAASGRILYGYAKGSYRQAPGKERELVASITWSGGSTYADSVKGRFTFSRDNAKNTVYLQMNSLKTEDTSVYYCSTRRGQKWQWLTYGYWGQGTQVTVSS | low polyreactivity |

| Sequence | polyreactivity (PSR sort gate) |
| --- | --- |
| QVQLEESGGGLVQAGGSLRLSCAASGRSFNHNAMGWYRQAPGKERELVAAINQSGSSTYYADSVKGRFTISRDNAKNTVYLQMNSLKREDTAVYYCAAVCNGVDYEYWGQGTQVTVSS | low polyreactivity |
| QVQLEESGGGLVQAGGSLRLSCAASGRTFGWNVMGWYRQAPGKERELVAAISGGGTSTYYADSVKGRFTISRDNAKNTVYLQMNSLNPEDTAVYYCNAYYPGSYYPRSGRYDYWGQGTQVTVSS | high polyreactivity |
| QVQLEESGGGLVQAGGSLRLSCAASGRTFKINAMGWYRQAPGKERELVAAIRRRGGSTYYADSVKGRFTISRDNAKNTVYLQMNSLKPEDTAVYYCAKTSWPYRVPSDSVAYDYWGQGTQVTVSS | low polyreactivity |
| QVQLEESGGGLVQAGGSLRLSCAASGRTFRFYAMGWYRQAPGKERELVAAISESGGNTYYADSVKGRFTISRDNAKNTVYLQMNSLKPEDTAVYYCAARGRWKYNYWGQGTQVTVSS | high polyreactivity |
| QVQLEESGGGLVQAGGSLRLSCAASGRTFSANTMGLYRKATGKERELVAAISKSGGSTYYADSVKGRLTISRDTAKYTVYLQMNSLNPEDTAVYYCAARTSGYWYSYGSWGQGTQVTVSS | high polyreactivity |
| QVQLEESGGGLVQAGGSLRLSCAASGRTFSVNPMRWYRQAPGKERELVAAISWSTGSTYYADSVKGRFTISRDNAKNTVYLQMNSLKPEDTAVYYCAKLYEYRRSRYRTYGYWGQGTQVTVSS | high polyreactivity |
| QVQLEESGGGLVQAGGSLRLSCAASGRTFYIYAMGWYRQAAGKERELVAAITWSGGTTYYADSVKGRFTISRDNAKNTVYLQMNSLKPEDTAVYDCNAGATYVKRRRGRKYDYWGQGTQVTVSS | low polyreactivity |
| QVQLEESGGGLVQAGGSLRLSCAASGRTLKVYAMGWYRTAPGKERELVAAINNGGSTNYADSVKGRFTISRDNAKNTVFLQMNSLKPEDTAVYYFNAVYYARFRKYTYYYWGQGTQVTVSS | high polyreactivity |
| QVQLEESGGGLVQAGGSLRLSCAASGRTSRVYAMGWYRQAPGKERELVAAITWRGGNTYYADSVKGRFTISRDNAKNTVYLQMNSLKPEDTAVYYCARDNGSPYHYYYWGQGTQVTVSS | high polyreactivity |
| QVQLEESGGGLVQAGGSLRLSCAASGSIFDYYAMGWYRQAPGTERELVATITSGVSTYYADSVKGRFTISRDNAKNTVYLQMNSLKPEETAVYYCARDYAKSQDVYKYDYWGQGTQVTVSS | low polyreactivity |
| QVQLEESGGGLVQAGGSLRLSCAASGSIFEGNGMGWYRPAPGKERELVAAITFRSGSTYYADSVKGRFTISRDNAKNTVYLQMNSLKPEDTAVYYCAADEYYKVSAYDFWGQGTQVTVSS | low polyreactivity |
| QVQLEESGGGLVQAGGSLRLSCAASGSIFFEYAMGWYRQAAGKERELVASINRGGGSTYYADSVKGRYTISRDNAKKNVYLQMNSLKPEDTAVYYCAAQWKYRQSYLDYYWGQGTQVTVSS | low polyreactivity |
| QVQLEESGGGLVQAGGSLRLSCAASGSIFLGNAMGWYRQAPGKERDLVAAISGGDSTNYADAVKGRFTISRDNAKNTGYLEMNCLKPEDTAVYYCNAVRTLYIWWPGYYYCGQGTQVTVSS | low polyreactivity |
| QVQLEESGGGLVQAGGSLRLSCAASGSIFSPNAMGWYRQAPGKERELVAAISSNGVSTYYADSVKGRFTISRDNAKNTVYLQMNSLKPEDTAVYYCAAVSIGPGEYDYWGQGTQVTVSS | low polyreactivity |
| QVQLEESGGGLVQAGGSLRLSCAASGSIFTNAMGWYRQAPGKERELVAAISSSGGSTYYADSVKGRFTISRDNAKNTVYLQMNSLKPEDTAVYYCAADHYGGRDYWGQGTQVTVSS | low polyreactivity |
| QVQLEESGGGLVQAGGSLRLSCAASGSIFVYNAMGWYRQAPGKERELVAAISQRGGSTYYADSVKGRFTISRDNDKNTVYLQMNSLKPEDTAVYYCAAGPGDSGDDYWGQGTQVTVAS | low polyreactivity |
| QVQLEESGGGLVQAGGSLRLSCAASGSIFVYYAMGWYRQAPGKERELVAAISSSGTSTYYADSVKGRFTISRDNAKNTVYLQMNSLKPEDTAVYYCATTRRYAYRGGHNYWGQGTQVTVSS | high polyreactivity |
| QVQLEESGGGLVQAGGSLRLSCAASGSIFYTYAMGWYRQAPGTERELVAAISRSGGSTYYADSVKGRFTISRDNAKNTVYLQMNSLKPEDTSVYYCAARPPYRVGIVPLGRREYYWGQGTQVTVSS | high polyreactivity |
| QVQLEESGGGLVQAGGSLRLSCAASGSILPKYDMGWSRQAPGKERELVAAITRTGGRTYYADSVKGRFTISRDYAKNTVYLQMNSLKPEDTAVYFCAVRGFFWSTRSYRIRSEYDYWGQGTQVTVSS | low polyreactivity |
| QVQLEESGGGLVQAGGSLRLSCAASGSTFDVYAMGWYRQAPGKERELVAAISRSGGSTYYADSVKGRFTISRDTAKTTVYLQMNSLQPEDTAVYYCNARLARWGSYEYNYWGQGTQVTVSS | low polyreactivity |
